In the supplement of paper PMC10567573:

B1: ACBD3 (parent)
chain: YVASHKIEKEEQEKKRKEEEERRR
B2: INTS4 (parent)
chain: TIIEPAGESDNPLRFTSGLVVALD

Variants of: B1
Test: protein stability index of a GFP-peptide fusion (GPS, HEK-293T) (PSI 1-6); higher = more stable
Details: c terminus: a fixed tail appended
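Further: lentivirally expressed fusions sorted by FACS into six bins by GFP to DsRed ratio, PSI derived from sequencing read proportions per bin multiplied by bin number.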

Going from E8G to E8D, the protein stability index rises from 2.49 to 2.74.

Going from E8R to E8P, the protein stability index falls from 2.81 to 2.29.

First: E8I
Second: E8W
The protein stability index of the first is higher: 2.16 for the first, 2.03 for the second.

Going from E8T to E8Y, the protein stability index rises from 2.13 to 2.32.

First: E8H
Second: A3D
The protein stability index of the first is lower: 1.96 for the first, 3.91 for the second.

First: A3V
Second: A3G
The protein stability index of the first is higher: 3.36 for the first, 2.33 for the second.

Compared with A3F, A3M is lower in protein stability index: 3.72 for the first, 3.14 for the second.

First: A3S
Second: A3R
The protein stability index of the first is higher: 3.04 for the first, 2.01 for the second.

Going from A3Y to A3I, the protein stability index rises from 2.13 to 2.61.

Going from A3K to A3P, the protein stability index falls from 2.95 to 1.47.

First: A3W
Second: A3C
The protein stability index of the first is higher: 2.85 for the first, 2.5 for the second.

Compared with A3T, A3E is lower in protein stability index: 2.98 for the first, 2.84 for the second.

First: A3Q
Second: A3L
The protein stability index of the first is higher: 3.36 for the first, 3.09 for the second.

First: A3N
Second: A3H
The protein stability index of the first is higher: 2.39 for the first, 2.15 for the second.

Variants of: B2
Test: as above
Details: c terminus: a fixed tail appended

First: I3Y
Second: I3G
The protein stability index of the first is lower: 3.29 for the first, 3.7 for the second.

First: I3N
Second: I3C
The protein stability index of the first is higher: 3.51 for the first, 3.2 for the second.

First: I3W
Second: P12C
The protein stability index of the first is higher: 2.88 for the first, 2.52 for the second.

Going from P12A to P12D, the protein stability index rises from 2.76 to 3.4.

Going from P12K to P12G, the protein stability index rises from 2.61 to 2.68.

First: P5D
Second: P5S
The protein stability index of the first is higher: 3.36 for the first, 2.33 for the second.

First: P5F
Second: P5H
The protein stability index of the first is lower: 1.53 for the first, 2.83 for the second.

Going from P5I to P5T, the protein stability index rises from 1.5 to 2.77.

First: N11G
Second: N11H
The protein stability index of the first is lower: 2.38 for the first, 2.47 for the second.

Going from N11T to N11A, the protein stability index rises from 2.64 to 3.13.

First: N11P
Second: N11I
The protein stability index of the first is lower: 2.27 for the first, 2.42 for the second.

First: N11L
Second: S17C
The protein stability index of the first is higher: 2.42 for the first, 1.52 for the second.

Going from S17V to S17F, the protein stability index rises from 1.73 to 2.08.

First: S17N
Second: S17R
The protein stability index of the first is higher: 2.53 for the first, 2.05 for the second.

First: V21T
Second: V21D
The protein stability index of the first is lower: 3.67 for the first, 4.92 for the second.

First: V21C
Second: A22M
The protein stability index of the first is higher: 3.48 for the first, 2.26 for the second.

First: A22Q
Second: A22P
The protein stability index of the first is lower: 2.65 for the first, 3.58 for the second.

Compared with A22F, A22N is higher in protein stability index: 2.03 for the first, 3.18 for the second.

Going from E4K to E4W, the protein stability index falls from 2.19 to 1.56.

First: E4T
Second: E4M
The protein stability index of the first is higher: 2.34 for the first, 2.1 for the second.

Compared with E4S, E4V is lower in protein stability index: 2.89 for the first, 1.98 for the second.

Compared with A6W, A6S is higher in protein stability index: 1.78 for the first, 2.54 for the second.

Compared with A6L, A6R is higher in protein stability index: 2.2 for the first, 3.07 for the second.

First: A6I
Second: A6G
The protein stability index of the first is lower: 2.73 for the first, 2.94 for the second.

Going from T1V to T1C, the protein stability index rises from 2.23 to 2.38.

Going from T1S to T1I, the protein stability index falls from 3.41 to 2.2.

Going from T1Y to T1E, the protein stability index rises from 2.08 to 2.68.

Compared with R14Y, R14E is higher in protein stability index: 2.21 for the first, 4.21 for the second.

First: R14A
Second: R14F
The protein stability index of the first is higher: 3.63 for the first, 2.04 for the second.

First: R14P
Second: S9I
The protein stability index of the first is higher: 3.4 for the first, 2.78 for the second.

Compared with S9M, S9L is lower in protein stability index: 3.16 for the first, 2.38 for the second.

Going from S9R to S9A, the protein stability index falls from 2.79 to 2.57.

Compared with S9G, S9C is lower in protein stability index: 2.75 for the first, 2.28 for the second.

First: T16E
Second: T16N
The protein stability index of the first is higher: 3.44 for the first, 3.39 for the second.

Going from T16Y to T16A, the protein stability index rises from 1.74 to 2.74.

First: T16K
Second: T16D
The protein stability index of the first is lower: 3.02 for the first, 3.92 for the second.

First: G18F
Second: G18Q
The protein stability index of the first is lower: 1.41 for the first, 2.7 for the second.

Going from G18N to G18L, the protein stability index falls from 2.99 to 1.55.

Compared with G18T, G18S is higher in protein stability index: 2.51 for the first, 2.83 for the second.

First: G7V
Second: G7S
The protein stability index of the first is lower: 2.76 for the first, 2.9 for the second.

Compared with G7T, V20C is higher in protein stability index: 3.08 for the first, 3.38 for the second.

Going from V20P to V20L, the protein stability index falls from 4.23 to 2.53.

Going from D10C to D10W, the protein stability index rises from 2.08 to 2.85.

First: D10K
Second: D10P
The protein stability index of the first is lower: 2.32 for the first, 2.83 for the second.

Compared with D10V, D10E is higher in protein stability index: 2 for the first, 2.62 for the second.

Compared with D24Y, D24L is lower in protein stability index: 2.31 for the first, 1.73 for the second.

Going from D24R to D24I, the protein stability index falls from 1.9 to 1.33.

First: D24P
Second: I2F
The protein stability index of the first is lower: 2.31 for the first, 3.8 for the second.

Compared with I2D, I2P is lower in protein stability index: 4.21 for the first, 3.9 for the second.

Going from I2Q to I2T, the protein stability index falls from 3.22 to 3.21.

Compared with I2H, I2R is higher in protein stability index: 3.18 for the first, 3.67 for the second.

Compared with I2L, I2E is higher in protein stability index: 3.48 for the first, 3.86 for the second.

Compared with F15N, F15D is higher in protein stability index: 4.36 for the first, 5.04 for the second.

Going from F15S to F15C, the protein stability index falls from 4.21 to 3.87.

First: F15L
Second: F15M
The protein stability index of the first is lower: 3.21 for the first, 3.44 for the second.

Compared with F15W, F15R is higher in protein stability index: 2.2 for the first, 3.92 for the second.

First: L23N
Second: L23W
The protein stability index of the first is higher: 4.1 for the first, 2.97 for the second.

First: L23R
Second: L23I
The protein stability index of the first is higher: 3.6 for the first, 2.4 for the second.

Going from L23P to L23V, the protein stability index falls from 4.17 to 3.1.

Going from L23E to L23M, the protein stability index falls from 4.4 to 3.26.

First: L13A
Second: L13P
The protein stability index of the first is higher: 3.81 for the first, 3.6 for the second.

Compared with L13I, L13V is higher in protein stability index: 2.87 for the first, 3.01 for the second.

Compared with L13G, L13Y is higher in protein stability index: 3.14 for the first, 3.17 for the second.

Going from L13R to L13H, the protein stability index falls from 3.65 to 3.38.

Compared with L13W, L13E is higher in protein stability index: 3.14 for the first, 4.12 for the second.

Going from E8H to E8V, the protein stability index rises from 2.23 to 2.66.

Going from E8Y to E8Q, the protein stability index rises from 1.99 to 2.62.

First: L19V
Second: L19P
The protein stability index of the first is lower: 3.33 for the first, 3.72 for the second.

Going from L19K to L19Y, the protein stability index falls from 4.27 to 2.62.

Variant L19R has a protein stability index of 4.01.
